Substitutions are numbered along the chain they refer to. Names and notes keep the numbering of the source.
B1: Ic_S4_P4E.1_K4.1_C4.1_H4.1_A4.1_[A6T]_[T7G]_F4.1_[T8C]_[A9G]_T4.1 (ssRNA)
RNA: UUUGACAACUGAUCGUUCUUUCUUGUAUUGCGUUCUUUCUCGAUCAGUUGUCUUU
B2: Ic_S4_P4E.1_K4.1_C4.1_H4.1_A4.1_[A6T]_[T7C]_F4.1_[T8C]_[A9T]_T4.1 (ssRNA)
RNA: B1 RNA with G30C, G32U
B3: Ic_S4_P4E.1_K4.1_C4.1_H4.1_A4.1_[T7G]_F4.1_[T8C]_[A9C]_T4.1 (ssRNA)
RNA: B1 RNA with U29A, G32C
B4: Ic_S4_P4E.1_K4.1_C4.1_H4.1_A4.1_[A6T]_[T7A]_F4.1_[T8G]_[A9C]_T4.1 (ssRNA)
RNA: B1 RNA with G30A, C31G, G32C
B5: Ic_S4_P4E.1_K4.1_C4.1_H4.1_A4.1_[T7A]_F4.1_[T8C]_[A9G]_T4.1 (ssRNA)
RNA: B1 RNA with U29A, G30A
B6: Ic_S4_P4E.1_K4.1_C4.1_H4.1_A4.1_[A6T]_F4.1_[T8G]_[A9T]_T4.1 (ssRNA)
RNA: B1 RNA with G30U, C31G, G32U
B7: Ic_S4_P4E.1_K4.1_C4.1_H4.1_A4.1_[A6T]_[T7A]_F4.1_[A9C]_T4.1 (ssRNA)
RNA: B1 RNA with G30A, C31U, G32C
B8: Ic_S4_P4E.1_K4.1_C4.1_H4.1_A4.1_[A6T]_[T7A]_F4.1_[T8A]_[A9T]_T4.1 (ssRNA)
RNA: B1 RNA with G30A, C31A, G32U
B9: Ic_S4_P4E.1_K4.1_C4.1_H4.1_A4.1_[A6T]_[T7C]_F4.1_[T8G]_[A9C]_T4.1 (ssRNA)
RNA: B1 RNA with G30C, C31G, G32C
B10: Ic_S4_P4E.1_K4.1_C4.1_H4.1_A4.1_F4.1_[T8A]_T4.1 (ssRNA)
RNA: B1 RNA with U29A, G30U, C31A, G32A
B11: Ic_S4_P4E.1_K4.1_C4.1_H4.1_A4.1_[A6T]_[T7C]_F4.1_[A9C]_T4.1 (ssRNA)
RNA: B1 RNA with G30C, C31U, G32C
B12: Ic_S4_P4E.1_K4.1_C4.1_H4.1_A4.1_[T7C]_F4.1_[T8A]_[A9C]_T4.1 (ssRNA)
RNA: B1 RNA with U29A, G30C, C31A, G32C
B13: Ic_S4_P4E.1_K4.1_C4.1_H4.1_A4.1_F4.1_[T8C]_[A9C]_T4.1 (ssRNA)
RNA: B1 RNA with U29A, G30U, G32C
B14: Ic_S4_P4E.1_K4.1_C4.1_H4.1_A4.1_[A6T]_[T7A]_F4.1_[T8C]_[A9C]_T4.1 (ssRNA)
RNA: B1 RNA with G30A, G32C
B15: Ic_S4_P4E.1_K4.1_C4.1_H4.1_A4.1_[A6T]_F4.1_[T8G]_[A9G]_T4.1 (ssRNA)
RNA: B1 RNA with G30U, C31G
B16: Ic_S4_P4E.1_K4.1_C4.1_H4.1_A4.1_[A6T]_[T7G]_F4.1_[T8C]_[A9C]_T4.1 (ssRNA)
RNA: B1 RNA with G32C
B17: Ic_S4_P4E.1_K4.1_C4.1_H4.1_A4.1_F4.1_[A9C]_T4.1 (ssRNA)
RNA: B1 RNA with U29A, G30U, C31U, G32C
B18: Ic_S4_P4E.1_K4.1_C4.1_H4.1_A4.1_[A6T]_[T7C]_F4.1_[A9G]_T4.1 (ssRNA)
RNA: B1 RNA with G30C, C31U
B19: Ic_S4_P4E.1_K4.1_C4.1_H4.1_A4.1_[A6T]_[T7A]_F4.1_[T8C]_T4.1 (ssRNA)
RNA: B1 RNA with G30A, G32A
B20: Ic_S4_P4E.1_K4.1_C4.1_H4.1_A4.1_[T7A]_F4.1_[A9T]_T4.1 (ssRNA)
RNA: B1 RNA with U29A, G30A, C31U, G32U
B21: Ic_S4_P4E.1_K4.1_C4.1_H4.1_A4.1_[T7G]_F4.1_[T8C]_[A9T]_T4.1 (ssRNA)
RNA: B1 RNA with U29A, G32U
B22: Ic_S4_P4E.1_K4.1_C4.1_H4.1_A4.1_F4.1_T4.1 (ssRNA)
RNA: B1 RNA with U29A, G30U, C31U, G32A
B23: Ic_S4_P4E.1_K4.1_C4.1_H4.1_A4.1_[A6T]_[T7G]_F4.1_[A9G]_T4.1 (ssRNA)
RNA: B1 RNA with C31U
B24: Ic_S4_P4E.1_K4.1_C4.1_H4.1_A4.1_[A6T]_F4.1_[A9T]_T4.1 (ssRNA)
RNA: B1 RNA with G30U, C31U, G32U
B25: Ic_S4_P4E.1_K4.1_C4.1_H4.1_A4.1_[T7C]_F4.1_[T8G]_[A9T]_T4.1 (ssRNA)
RNA: B1 RNA with U29A, G30C, C31G, G32U
B26: Ic_S4_P4E.1_K4.1_C4.1_H4.1_A4.1_[A6T]_[T7C]_F4.1_[T8A]_[A9T]_T4.1 (ssRNA)
RNA: B1 RNA with G30C, C31A, G32U
B27: Ic_S4_P4E.1_K4.1_C4.1_H4.1_A4.1_[A6T]_F4.1_[T8C]_[A9C]_T4.1 (ssRNA)
RNA: B1 RNA with G30U, G32C
B28: Ic_S4_P4E.1_K4.1_C4.1_H4.1_A4.1_[A6T]_[T7C]_F4.1_[T8A]_[A9C]_T4.1 (ssRNA)
RNA: B1 RNA with G30C, C31A, G32C
B29: Ic_S4_P4E.1_K4.1_C4.1_H4.1_A4.1_[A6T]_[T7C]_F4.1_[T8C]_[A9G]_T4.1 (ssRNA)
RNA: B1 RNA with G30C
B30: Ic_S4_P4E.1_K4.1_C4.1_H4.1_A4.1_[A6T]_[T7C]_F4.1_[A9T]_T4.1 (ssRNA)
RNA: B1 RNA with G30C, C31U, G32U
B31: Ic_S4_P4E.1_K4.1_C4.1_H4.1_A4.1_[A6T]_F4.1_[T8A]_T4.1 (ssRNA)
RNA: B1 RNA with G30U, C31A, G32A
B32: Ic_S4_P5E.1_K5.1_C5.1_H5.1_A5.1_[T5C]_[T6C]_F5.1_[T8A]_[T9C]_[A10C]_T5.1 (ssRNA)
RNA: UUUGACAACUGAUCGUUCUUUCUUGUACCAACCUUCUUUCUCGAUCAGUUGUCUUU
B33: Ic_S4_P5E.1_K5.1_C5.1_H5.1_A5.1_[T5A]_[T6C]_[A7C]_F5.1_[T8G]_[T9C]_[A10C]_T5.1 (ssRNA)
RNA: B32 RNA with C28A, A30C, A31G
B34: Ic_S4_P5E.1_K5.1_C5.1_H5.1_A5.1_[T6C]_[A7G]_F5.1_[T8G]_T5.1 (ssRNA)
RNA: B32 RNA with C28U, A30G, A31G, C32U, C33A
B35: Ic_S4_P5E.1_K5.1_C5.1_H5.1_A5.1_[T5C]_[A7C]_F5.1_[T9C]_[A10G]_T5.1 (ssRNA)
RNA: B32 RNA with C29U, A30C, A31U, C33G
B36: Ic_S4_P5E.1_K5.1_C5.1_H5.1_A5.1_[T6A]_[A7C]_F5.1_[T8C]_[T9G]_[A10T]_T5.1 (ssRNA)
RNA: B32 RNA with C28U, C29A, A30C, A31C, C32G, C33U
B37: Ic_S4_P5E.1_K5.1_C5.1_H5.1_A5.1_[T5G]_F5.1_[T8A]_[T9C]_[A10C]_T5.1 (ssRNA)
RNA: B32 RNA with C28G, C29U
B38: Ic_S4_P5E.1_K5.1_C5.1_H5.1_A5.1_[T6C]_[A7T]_F5.1_[T9A]_[A10G]_T5.1 (ssRNA)
RNA: B32 RNA with C28U, A30U, A31U, C32A, C33G
B39: Ic_S4_P5E.1_K5.1_C5.1_H5.1_A5.1_[T5G]_[A7T]_F5.1_[T9C]_[A10C]_T5.1 (ssRNA)
RNA: B32 RNA with C28G, C29U, A30U, A31U
B40: Ic_S4_P5E.1_K5.1_C5.1_H5.1_A5.1_[T5C]_[T6C]_[A7G]_F5.1_[T8A]_[T9C]_[A10C]_T5.1 (ssRNA)
RNA: B32 RNA with A30G
B41: Ic_S4_P5E.1_K5.1_C5.1_H5.1_A5.1_[T5C]_[T6G]_[A7G]_F5.1_[T9A]_T5.1 (ssRNA)
RNA: B32 RNA with C29G, A30G, A31U, C32A, C33A
B42: Ic_S4_P5E.1_K5.1_C5.1_H5.1_A5.1_[T5A]_[A7G]_F5.1_[T8C]_[T9A]_[A10T]_T5.1 (ssRNA)
RNA: B32 RNA with C28A, C29U, A30G, A31C, C32A, C33U
B43: Ic_S4_P5E.1_K5.1_C5.1_H5.1_A5.1_[T5C]_[A7C]_F5.1_[T8A]_[T9G]_[A10C]_T5.1 (ssRNA)
RNA: B32 RNA with C29U, A30C, C32G
B44: Ic_S4_P5E.1_K5.1_C5.1_H5.1_A5.1_[T5C]_[T6G]_[A7T]_F5.1_[T8C]_[T9C]_[A10C]_T5.1 (ssRNA)
RNA: B32 RNA with C29G, A30U, A31C
B45: Ic_S4_P5E.1_K5.1_C5.1_H5.1_A5.1_[T5G]_[A7G]_F5.1_[T8C]_[T9C]_[A10T]_T5.1 (ssRNA)
RNA: B32 RNA with C28G, C29U, A30G, A31C, C33U
B46: Ic_S4_P5E.1_K5.1_C5.1_H5.1_A5.1_[T6A]_[A7T]_F5.1_[T8C]_[T9G]_[A10C]_T5.1 (ssRNA)
RNA: B32 RNA with C28U, C29A, A30U, A31C, C32G
B47: Ic_S4_P5E.1_K5.1_C5.1_H5.1_A5.1_[T6C]_F5.1_[T8A]_[T9A]_[A10C]_T5.1 (ssRNA)
RNA: B32 RNA with C28U, C32A
B48: Ic_S4_P5E.1_K5.1_C5.1_H5.1_A5.1_[T6C]_F5.1_[T8C]_[T9A]_[A10T]_T5.1 (ssRNA)
RNA: B32 RNA with C28U, A31C, C32A, C33U

Molecular target: T1, PUF4 RNA-binding domain (Saccharomyces cerevisiae, UniProt P25339 537-888)
T1 sequence: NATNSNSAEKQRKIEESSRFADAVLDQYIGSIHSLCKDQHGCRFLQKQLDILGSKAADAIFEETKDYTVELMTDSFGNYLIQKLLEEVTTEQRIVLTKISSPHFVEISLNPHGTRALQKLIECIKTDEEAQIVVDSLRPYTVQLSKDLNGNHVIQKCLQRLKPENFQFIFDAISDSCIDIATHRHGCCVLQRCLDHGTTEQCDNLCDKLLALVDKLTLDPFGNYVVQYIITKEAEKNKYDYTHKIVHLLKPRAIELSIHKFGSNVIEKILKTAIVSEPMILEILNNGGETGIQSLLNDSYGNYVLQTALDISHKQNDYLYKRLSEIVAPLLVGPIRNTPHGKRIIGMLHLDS
Assay: Mg; RNA-MaP; 20 mM Na-HEPES pH 7.4, 30 mM KOAc, 0.75 mM MgCl2, 0.1% Tween-20, 5% glycerol, 0.1 mg/mL BSA, 2 mM DTT; 25 C; 0.0125-409.6 nM protein
Conditions: tags: N-His6-TEV cleaved; C-SNAP kept, Cy3B-labelled; label: tethered on chip by stalled RNA polymerase

Row | Binder | Kd
1 | UCUCUUUGUACAUUCUCUCUU (ssRNA) [Ib_S1_P4E.1_K4.1_C4.1_H4.1_A4.1_[T5C]_F4.1_[A9C]_T4.1] | 0.00541 µM
2 | UCUCUUUGUACAUUGUCUCUU (ssRNA) [Ic_S1_P4E.1_K4.1_C4.1_H4.1_A4.1_[T5C]_F4.1_[A9G]_T4.1] | 0.00375 µM
3 | UCUCUUUGUUUAUUAUCUCUU (ssRNA) [Ia_S1_P4E.1_K4.1_C4.1_H4.1_[A4T]_A4.1_F4.1_T4.1] | 0.0115 µM
4 | B1 | 0.593 µM
5 | B2 | 0.0619 µM
6 | B3 | 0.0873 µM
7 | B4 | 0.794 µM
8 | B5 | 0.0404 µM
9 | B6 | 0.0461 µM
10 | B7 | 0.0383 µM
11 | B8 | 0.095 µM
12 | B9 | 0.417 µM
13 | B10 | 0.0029 µM
14 | B11 | 0.0344 µM
15 | B12 | 0.0511 µM
16 | B13 | 0.0123 µM
17 | B14 | 0.191 µM
18 | B15 | 0.23 µM
19 | B16 | 0.537 µM
20 | B17 | 0.00449 µM
21 | B18 | 0.0204 µM
22 | B19 | 0.436 µM
23 | B20 | 0.0102 µM
24 | B21 | 0.0495 µM
25 | B22 | 0.000362 µM
26 | B23 | 0.0751 µM
27 | B24 | 0.0121 µM

Row | Binder | Kd
28 | B25 | 0.0275 µM
29 | B26 | 0.113 µM
30 | B27 | 0.0745 µM
31 | B28 | 0.425 µM
32 | B29 | 0.159 µM
33 | B30 | 0.0278 µM
34 | B31 | 0.0211 µM
35 | UCUCUUUGUAUACAAUCUCUU (ssRNA) [Ib_S1_P4E.1_K4.1_C4.1_H4.1_A4.1_[T7C]_F4.1_[T8A]_T4.1] | 0.0448 µM
36 | UCUCUUUGUAUAAAAUCUCUU (ssRNA) [Ib_S1_P4E.1_K4.1_C4.1_H4.1_A4.1_[T7A]_F4.1_[T8A]_T4.1] | 0.0221 µM
37 | UCUCUUUGUAAAUUGUCUCUU (ssRNA) [Ic_S1_P4E.1_K4.1_C4.1_H4.1_A4.1_[T5A]_F4.1_[A9G]_T4.1] | 0.0109 µM
38 | B32 | 0.424 µM
39 | B33 | 1.38 µM
40 | B34 | 0.0459 µM
41 | B35 | 0.12 µM
42 | B36 | 0.0378 µM
43 | B37 | 1.16 µM
44 | B38 | 0.00348 µM
45 | B39 | 0.125 µM
46 | B40 | 1.02 µM
47 | B41 | 0.0384 µM
48 | B42 | 0.844 µM
49 | B43 | 0.73 µM
50 | B44 | 0.114 µM
51 | B45 | 0.956 µM
52 | B46 | 0.0218 µM
53 | B47 | 0.156 µM
54 | B48 | 0.183 µM

— paper PMC9352680, “A comprehensive thermodynamic model for RNA binding by the Saccharomyces cerevisiae Pumilio protein PUF4”
